Data as given in the supplement of paper PMC10567573.

B1: CPN1 (parent)
chain: RGVRRTASTPTPDDKLFQKLAKVY

Variants of: B1
Assay: protein stability index of a GFP-peptide fusion (GPS, HEK-293T) (PSI 1-6); higher = more stable
Details: c terminus: a fixed tail appended
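Also: lentivirally expressed fusions sorted by FACS into six bins by GFP to DsRed ratio, PSI derived from sequencing read proportions per bin multiplied by bin number.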

Variant | protein stability index
RGVRRTASTPTPEDKLFQKLAKVY [D13E] | 1.24
RGVRRTASTPTPMDKLFQKLAKVY [D13M] | 2.59
RGVRRTASTPTPQDKLFQKLAKVY [D13Q] | 1.94
RGVRRTASTPTPVDKLFQKLAKVY [D13V] | 1.78
RGVRRTASTPTPHDKLFQKLAKVY [D13H] | 2.08
RGVRRTASTPTPCDKLFQKLAKVY [D13C] | 1.2
RGVRRTASTPTPTDKLFQKLAKVY [D13T] | 1.27
RGVRRTASTPTPFDKLFQKLAKVY [D13F] | 1.99
RGVRRTASTPTPKDKLFQKLAKVY [D13K] | 1.88
RGVRRTASTPTPWDKLFQKLAKVY [D13W] | 1.61
RGVRRTASTPTPYDKLFQKLAKVY [D13Y] | 2.24
RGVRRTASTPTPADKLFQKLAKVY [D13A] | 1.97
RGVRRTASTPTPRDKLFQKLAKVY [D13R] | 1.63
RGVRRTASTPTPLDKLFQKLAKVY [D13L] | 1.65
RGVRRTASTPTPNDKLFQKLAKVY [D13N] | 1.89
RGVRRTASTPTPSDKLFQKLAKVY [D13S] | 2.02
RGVRRTASTPTPGDKLFQKLAKVY [D13G] | 2.37
RGVRRTASTPTPDDKLFSKLAKVY [Q18S] | 2.09
RGVRRTASTPTPDDKLFMKLAKVY [Q18M] | 1.47
RGVRRTASTPTPDDKLFTKLAKVY [Q18T] | 2.42
RGVRRTASTPTPDDKLFLKLAKVY [Q18L] | 1.69
RGVRRTASTPTPDDKLFFKLAKVY [Q18F] | 1.43
RGVRRTASTPTPDDKLFWKLAKVY [Q18W] | 1.37
RGVRRTASTPTPDDKLFIKLAKVY [Q18I] | 1.75

Variant | protein stability index
RGVRRTASTPTPDDKLFDKLAKVY [Q18D] | 2.32
RGVRRTASTPTPDDKLFYKLAKVY [Q18Y] | 1.78
RGVRRTASTPTPDDKLFPKLAKVY [Q18P] | 2.7
RGVRRTASTPTPDDKLFRKLAKVY [Q18R] | 1.77
RGVRRTASTPTPDDKLFNKLAKVY [Q18N] | 1.8
RGVRRTASTPTPDDKLFCKLAKVY [Q18C] | 2.6
RGVRRTASTPTPDDKLFGKLAKVY [Q18G] | 2.29
RGVRRTASTPTPDDKLFEKLAKVY [Q18E] | 2.19
RGVRRTASTPTPDDKLFVKLAKVY [Q18V] | 1.82
RGVRRTASTPTPDDKLFAKLAKVY [Q18A] | 1.93
RGVRRTASTPTPDDKLFHKLAKVY [Q18H] | 2.02
RGVRRTASTPTPDDKLFKKLAKVY [Q18K] | 1.84
RGVRRTASTPTPDDKLYQKLAKVY [F17Y] | 2.28
RGVRRTASTPTPDDKLMQKLAKVY [F17M] | 3
RGVRRTASTPTPDDKLWQKLAKVY [F17W] | 2.26
RGVRRTASTPTPDDKLQQKLAKVY [F17Q] | 3.21
RGVRRTASTPTPDDKLAQKLAKVY [F17A] | 3.19
RGVRRTASTPTPDDKLNQKLAKVY [F17N] | 2.88
RGVRRTASTPTPDDKLCQKLAKVY [F17C] | 2.96
RGVRRTASTPTPDDKLSQKLAKVY [F17S] | 2.94
RGVRRTASTPTPDDKLTQKLAKVY [F17T] | 3.67
RGVRRTASTPTPDDKLEQKLAKVY [F17E] | 3.95
RGVRRTASTPTPDDKLLQKLAKVY [F17L] | 2.15
RGVRRTASTPTPDDKLGQKLAKVY [F17G] | 3.25

Variant | protein stability index
RGVRRTASTPTPDDKLVQKLAKVY [F17V] | 2.58
RGVRRTASTPTPDDKLKQKLAKVY [F17K] | 3.5
RGVRRTASTPTPDDKLIQKLAKVY [F17I] | 2.53
RGVRRTASTPTPDDKLDQKLAKVY [F17D] | 3.32
RGVRRTASTPTPDDKLPQKLAKVY [F17P] | 2.84
RGVRRTASTPTPDDKLHQKLAKVY [F17H] | 2.63
RGVRRTASTPTPDDKLRQKLAKVY [F17R] | 3.43
RGVRRTASTPTPDAKLFQKLAKVY [D14A] | 2.05
RGVRRTASTPTPDLKLFQKLAKVY [D14L] | 1.64
RGVRRTASTPTPDFKLFQKLAKVY [D14F] | 1.75
RGVRRTASTPTPDTKLFQKLAKVY [D14T] | 2.38
RGVRRTASTPTPDYKLFQKLAKVY [D14Y] | 1.48
RGVRRTASTPTPDNKLFQKLAKVY [D14N] | 1.54
RGVRRTASTPTPDEKLFQKLAKVY [D14E] | 1.95
RGVRRTASTPTPDWKLFQKLAKVY [D14W] | 1.68
RGVRRTASTPTPDSKLFQKLAKVY [D14S] | 2.63
RGVRRTASTPTPDHKLFQKLAKVY [D14H] | 2.32
RGVRRTASTPTPDGKLFQKLAKVY [D14G] | 2.78
RGVRRTASTPTPDMKLFQKLAKVY [D14M] | 2.45
RGVRRTASTPTPDVKLFQKLAKVY [D14V] | 2.19
RGVRRTASTPTPDQKLFQKLAKVY [D14Q] | 2.35
RGVRRTASTPTPDRKLFQKLAKVY [D14R] | 1.93
RGVRRTASTPTPDCKLFQKLAKVY [D14C] | 1.56
RGVRRTASTPTPDKKLFQKLAKVY [D14K] | 2.35

Variant | protein stability index
RGVRRTASTPTPDIKLFQKLAKVY [D14I] | 1.23
RGVRRTASTPTPDDKLFQGLAKVY [K19G] | 2.21
RGVRRTASTPTPDDKLFQNLAKVY [K19N] | 2.16
RGVRRTASTPTPDDKLFQALAKVY [K19A] | 1.62
RGVRRTASTPTPDDKLFQELAKVY [K19E] | 2.54
RGVRRTASTPTPDDKLFQLLAKVY [K19L] | 2.36
RGVRRTASTPTPDDKLFQSLAKVY [K19S] | 1.74
RGVRRTASTPTPDDKLFQWLAKVY [K19W] | 2.21
RGVRRTASTPTPDDKLFQFLAKVY [K19F] | 2.53
RGVRRTASTPTPDDKLFQYLAKVY [K19Y] | 1.34
RGVRRTASTPTPDDKLFQQLAKVY [K19Q] | 1.96
RGVRRTASTPTPDDKLFQVLAKVY [K19V] | 2.1
RGVRRTASTPTPDDKLFQTLAKVY [K19T] | 1.98
RGVRRTASTPTPDDKLFQDLAKVY [K19D] | 2.67
RGVRRTASTPTPDDKLFQPLAKVY [K19P] | 2.93
RGVRRTASTPTPDDKLFQRLAKVY [K19R] | 2.49
RGVRRTASTPTPDDKLFQHLAKVY [K19H] | 2.12
RGVRRTASTPTPDDKMFQKLAKVY [L16M] | 2.65
RGVRRTASTPTPDDKPFQKLAKVY [L16P] | 3.29
RGVRRTASTPTPDDKSFQKLAKVY [L16S] | 2.95
RGVRRTASTPTPDDKKFQKLAKVY [L16K] | 3.56
RGVRRTASTPTPDDKTFQKLAKVY [L16T] | 3.43
